Laboratory results: patent US20050288488

What was measured:
[1] = molecular target: AhR-ARNT heterodimer (human AhR, human ARNT) (Homo sapiens) (UniProt P35869+P27540); assay: cell_activity; details: yeast A303 lacZ reporter, average induction over background with bNF or aNF; ligand EC50 7.9e-8 M for bNF
[2] = tested on: LexA(1-202)-AhR N-delta-166 chimera (Escherichia coli? / Mus musculus?); assay: cell_activity; details: yeast GRS4 lacZ reporter, average induction over background with bNF or aNF; ligand EC50 6.1e-8 M for bNF

Sequence of AhR-ARNT heterodimer (human AhR, human ARNT) (Homo sapiens) (P35869 whole entry, chain 1 of 2): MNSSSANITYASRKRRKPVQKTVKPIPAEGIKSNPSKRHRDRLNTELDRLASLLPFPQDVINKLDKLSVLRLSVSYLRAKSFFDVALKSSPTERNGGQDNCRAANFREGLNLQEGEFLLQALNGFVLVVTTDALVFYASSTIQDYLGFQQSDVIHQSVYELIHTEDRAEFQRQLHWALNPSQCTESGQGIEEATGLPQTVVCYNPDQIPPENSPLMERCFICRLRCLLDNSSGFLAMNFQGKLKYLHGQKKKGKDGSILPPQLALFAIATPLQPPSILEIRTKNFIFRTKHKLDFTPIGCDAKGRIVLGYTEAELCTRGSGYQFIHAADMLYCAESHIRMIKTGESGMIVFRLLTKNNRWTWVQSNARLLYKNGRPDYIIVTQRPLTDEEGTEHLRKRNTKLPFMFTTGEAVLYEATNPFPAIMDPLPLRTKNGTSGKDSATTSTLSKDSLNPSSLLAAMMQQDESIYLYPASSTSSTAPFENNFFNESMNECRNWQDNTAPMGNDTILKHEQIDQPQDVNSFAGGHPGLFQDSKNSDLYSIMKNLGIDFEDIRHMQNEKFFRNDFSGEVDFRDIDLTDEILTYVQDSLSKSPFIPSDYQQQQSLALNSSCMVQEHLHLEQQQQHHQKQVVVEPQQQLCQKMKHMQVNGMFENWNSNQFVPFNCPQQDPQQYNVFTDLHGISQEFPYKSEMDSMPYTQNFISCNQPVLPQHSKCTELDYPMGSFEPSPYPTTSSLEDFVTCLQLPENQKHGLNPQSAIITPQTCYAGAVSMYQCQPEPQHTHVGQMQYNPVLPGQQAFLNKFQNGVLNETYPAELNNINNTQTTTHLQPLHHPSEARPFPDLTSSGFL
Sequence of AhR-ARNT heterodimer (human AhR, human ARNT) (Homo sapiens) (P27540 whole entry, chain 2 of 2): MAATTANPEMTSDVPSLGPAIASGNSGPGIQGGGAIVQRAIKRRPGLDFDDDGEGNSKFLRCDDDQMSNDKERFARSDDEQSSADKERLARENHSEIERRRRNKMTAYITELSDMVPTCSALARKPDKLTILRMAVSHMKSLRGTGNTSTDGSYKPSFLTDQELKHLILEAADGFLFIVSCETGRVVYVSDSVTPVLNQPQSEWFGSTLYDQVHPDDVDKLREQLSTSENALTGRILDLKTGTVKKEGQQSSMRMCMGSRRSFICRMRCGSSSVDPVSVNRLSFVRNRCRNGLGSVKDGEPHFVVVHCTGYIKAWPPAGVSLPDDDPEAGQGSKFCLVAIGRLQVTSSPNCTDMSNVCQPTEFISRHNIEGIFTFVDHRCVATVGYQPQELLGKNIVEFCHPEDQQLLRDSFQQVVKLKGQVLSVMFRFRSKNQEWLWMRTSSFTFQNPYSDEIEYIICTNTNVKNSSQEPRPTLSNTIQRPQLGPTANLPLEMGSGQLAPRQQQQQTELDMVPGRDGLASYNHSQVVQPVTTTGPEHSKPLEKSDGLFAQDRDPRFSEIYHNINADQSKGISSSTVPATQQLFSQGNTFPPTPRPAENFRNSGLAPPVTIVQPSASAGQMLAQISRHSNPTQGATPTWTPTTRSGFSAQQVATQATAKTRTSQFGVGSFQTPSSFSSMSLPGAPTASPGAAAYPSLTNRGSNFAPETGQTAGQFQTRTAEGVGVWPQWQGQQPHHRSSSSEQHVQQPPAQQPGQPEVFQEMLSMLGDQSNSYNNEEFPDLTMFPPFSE

## DRE2-DRE3 reporter (pDRE23-Z)
[1]
  activity: 12 fold

## eight LexA operator reporter (pSH18-34)
[2]
  activity: 90 fold
